According to paper PMC9254107, “The Toxoplasma glucan phosphatase TgLaforin utilizes a distinct functional mechanism that can be exploited by therapeutic inhibitors” (The Journal of Biological Chemistry, 2022):

Biological target: the molecule itself
Experiment: SEC-MALS; Superdex 200 10/300; 500 ul of 2 mg/ml protein loaded, 0.5 ml/min; purification buffer of full-length TgLaforin (50 mM Hepes, 100 mM NaCl, 15 mM imidazole, 2 mM DTT, pH 8.0)

B1: TgLaforin (Toxoplasma gondii laforin, glucan phosphatase), full length (enzyme, UniProt S8F2K7 1-523, looked up)
chain: MRVRFSVTAFVPPNAQLGVVGSAPFLGEWKLEHCVPLMPYSAPHPQGLEPSLWFRDIDLDPASCPNDTNDVHSTAAVSASCSADRRRCDLSRQSPHCFPSARSASPYMVEVSRGDCPFAVELMSTSQHVLSEFSKHNSPVYSAGEQRFRRSLPSSASFSSCTSSGSAVAATKCVWDAAAYRVATRAPEVQAVLESHPLRHCAFEYKFVLWYPPNGEIAVPYVPTTAGEEVPITYAGDSEVLNEESEGGARRRSWRKWLFPPSPSRCPAPPGPSESIVWEGFGPDSNRKFCFDPFDVVVDVNELGDLECLYICRIAHFRDPRAGGVGEYDLTTRFYNSVKSECRMHYSTIFPRFFVGSCPRQLKHIRHLKEELKVTCVVNLQTEQDLCNNYPDPIASSRSAEAVSQLYDGSGLRYVWLPTADMCDSARKIAVANAAFLLLGLFQSGHSVYMHCNAGVGRSVAAACAFLCFAVGLDLRKVNFLICARRPVAYWDEKAMKYGIGDYQAKFGHCRVVGEEAEERQHA
notes: TgLaforin, Toxoplasma gondii glucan phosphatase, ToxoDB TGME49_205290, 523 amino acids; N-terminal split CBM20 followed by a DSP domain; predicted recombinant monomer 61.5 kDa; also called T. gondii laforin; full-length TgLaforin; source: Sf9 insect cells (baculovirus), purified (Ni-agarose, SEC) to >95% homogeneity
stoichiometry N: 2
